Measurements reported in EP1142907A1.

Molecular target: GAL4-CREBΔLZ fusion protein
Test: cell-based or functional assay

transactivation of the pG5CAT reporter after caffeine in HEK293 cells: < 45 fold
Substance: transcriptional coactivator CBP (CREB-binding protein)
